{"source": "FireProtDB (doi:10.1110/ps.9.2.387)", "settings": "Escherichia coli (strain K12), Thermal, DSC, NaCl 100 mM, reversible: yes(>85%)", "key": {"[1]": {"settings": "pH 5.5, Sodium cacodylate 10 mM"}}, "data": [{"substance": "Cold shock protein CspA wild type, P0A9X9", "values": [{"measurement": "Tm", "setting": "pH 4, Sodium acetate 10 mM", "result": 33.2, "unit": "°C"}, {"measurement": "unfolding enthalpy (calorimetric)", "setting": "pH 4, Sodium acetate 10 mM", "result": 22.7, "unit": "kcal/mol"}, {"measurement": "Tm", "setting": "pH 4.5, Sodium acetate 10 mM", "result": 42.1, "unit": "°C"}, {"measurement": "unfolding enthalpy (calorimetric)", "setting": "pH 4.5, Sodium acetate 10 mM", "result": 28.9, "unit": "kcal/mol"}, {"measurement": "Tm", "setting": "pH 5, Sodium acetate 10 mM", "result": 47.7, "unit": "°C"}, {"measurement": "unfolding enthalpy (calorimetric)", "setting": "pH 5, Sodium acetate 10 mM", "result": 33, "unit": "kcal/mol"}, {"measurement": "Tm", "setting": "[1]", "result": 54.4, "unit": "°C"}, {"measurement": "unfolding enthalpy (calorimetric)", "setting": "[1]", "result": 39.9, "unit": "kcal/mol"}, {"measurement": "Tm", "setting": "pH 6, MOPS 10 mM", "result": 54.1, "unit": "°C"}, {"measurement": "unfolding enthalpy (calorimetric)", "setting": "pH 6, MOPS 10 mM", "result": 39.9, "unit": "kcal/mol"}, {"measurement": "Tm", "setting": "pH 6, PIPES 10 mM", "result": 53.1, "unit": "°C"}, {"measurement": "unfolding enthalpy (calorimetric)", "setting": "pH 6, PIPES 10 mM", "result": 36.1, "unit": "kcal/mol"}, {"measurement": "Tm", "setting": "pH 6, Sodium cacodylate 10 mM", "result": 56.5, "unit": "°C"}, {"measurement": "unfolding enthalpy (calorimetric)", "setting": "pH 6, Sodium cacodylate 10 mM", "result": 44.9, "unit": "kcal/mol"}, {"measurement": "Tm", "setting": "pH 6, Sodium phosphate 10 mM", "result": 55.9, "unit": "°C"}, {"measurement": "unfolding enthalpy (calorimetric)", "setting": "pH 6, Sodium phosphate 10 mM", "result": 39.4, "unit": "kcal/mol"}, {"measurement": "Tm", "setting": "pH 6.5, HEPES 10 mM", "result": 56.5, "unit": "°C"}, {"measurement": "unfolding enthalpy (calorimetric)", "setting": "pH 6.5, HEPES 10 mM", "result": 43.5, "unit": "kcal/mol"}, {"measurement": "Tm", "setting": "pH 6.5, MOPS 10 mM", "result": 56.1, "unit": "°C"}, {"measurement": "unfolding enthalpy (calorimetric)", "setting": "pH 6.5, MOPS 10 mM", "result": 39.9, "unit": "kcal/mol"}, {"measurement": "Tm", "setting": "pH 6.5, PIPES 10 mM", "result": 55.2, "unit": "°C"}, {"measurement": "unfolding enthalpy (calorimetric)", "setting": "pH 6.5, PIPES 10 mM", "result": 41.4, "unit": "kcal/mol"}, {"measurement": "Tm", "setting": "pH 6.5, Sodium citrate 10 mM", "result": 56.8, "unit": "°C"}, {"measurement": "unfolding enthalpy (calorimetric)", "setting": "pH 6.5, Sodium citrate 10 mM", "result": 45.2, "unit": "kcal/mol"}, {"measurement": "Tm", "setting": "pH 6.5, Sodium phosphate 10 mM", "result": 56.1, "unit": "°C"}, {"measurement": "unfolding enthalpy (calorimetric)", "setting": "pH 6.5, Sodium phosphate 10 mM", "result": 43.3, "unit": "kcal/mol"}, {"measurement": "Tm", "setting": "pH 6.5, imidazole 10 mM", "result": 53.7, "unit": "°C"}, {"measurement": "unfolding enthalpy (calorimetric)", "setting": "pH 6.5, imidazole 10 mM", "result": 39.2, "unit": "kcal/mol"}, {"measurement": "Tm", "setting": "pH 7, HEPES 10 mM", "result": 57.6, "unit": "°C"}, {"measurement": "unfolding enthalpy (calorimetric)", "setting": "pH 7, HEPES 10 mM", "result": 47.6, "unit": "kcal/mol"}, {"measurement": "Tm", "setting": "pH 7, MOPS 10 mM", "result": 56.4, "unit": "°C"}, {"measurement": "unfolding enthalpy (calorimetric)", "setting": "pH 7, MOPS 10 mM", "result": 40.6, "unit": "kcal/mol"}, {"measurement": "Tm", "setting": "pH 7, PIPES 10 mM", "result": 55.7, "unit": "°C"}, {"measurement": "unfolding enthalpy (calorimetric)", "setting": "pH 7, PIPES 10 mM", "result": 41.4, "unit": "kcal/mol"}, {"measurement": "Tm", "setting": "pH 7, Sodium cacodylate 10 mM", "result": 57, "unit": "°C"}, {"measurement": "unfolding enthalpy (calorimetric)", "setting": "pH 7, Sodium cacodylate 10 mM", "result": 47.3, "unit": "kcal/mol"}, {"measurement": "Tm", "setting": "pH 7, Sodium citrate 10 mM", "result": 57, "unit": "°C"}, {"measurement": "unfolding enthalpy (calorimetric)", "setting": "pH 7, Sodium citrate 10 mM", "result": 46.4, "unit": "kcal/mol"}, {"measurement": "Tm", "setting": "pH 7, Sodium phosphate 10 mM", "result": 57, "unit": "°C"}, {"measurement": "unfolding enthalpy (calorimetric)", "setting": "pH 7, Sodium phosphate 10 mM", "result": 43.3, "unit": "kcal/mol"}, {"measurement": "Tm", "setting": "pH 7, imidazole 10 mM", "result": 55.8, "unit": "°C"}, {"measurement": "unfolding enthalpy (calorimetric)", "setting": "pH 7, imidazole 10 mM", "result": 40.1, "unit": "kcal/mol"}, {"measurement": "Tm", "setting": "pH 7.5, HEPES 10 mM", "result": 57.8, "unit": "°C"}, {"measurement": "unfolding enthalpy (calorimetric)", "setting": "pH 7.5, HEPES 10 mM", "result": 49, "unit": "kcal/mol"}, {"measurement": "Tm", "setting": "pH 7.5, MOPS 10 mM", "result": 56.2, "unit": "°C"}, {"measurement": "unfolding enthalpy (calorimetric)", "setting": "pH 7.5, MOPS 10 mM", "result": 41.4, "unit": "kcal/mol"}, {"measurement": "Tm", "setting": "pH 7.5, PIPES 10 mM", "result": 56, "unit": "°C"}, {"measurement": "unfolding enthalpy (calorimetric)", "setting": "pH 7.5, PIPES 10 mM", "result": 42.3, "unit": "kcal/mol"}, {"measurement": "Tm", "setting": "pH 7.5, Sodium citrate 10 mM", "result": 57.3, "unit": "°C"}, {"measurement": "unfolding enthalpy (calorimetric)", "setting": "pH 7.5, Sodium citrate 10 mM", "result": 48.3, "unit": "kcal/mol"}, {"measurement": "Tm", "setting": "pH 7.5, Sodium phosphate 10 mM", "result": 57.1, "unit": "°C"}, {"measurement": "unfolding enthalpy (calorimetric)", "setting": "pH 7.5, Sodium phosphate 10 mM", "result": 46.9, "unit": "kcal/mol"}, {"measurement": "Tm", "setting": "pH 7.5, imidazole 10 mM", "result": 55.9, "unit": "°C"}, {"measurement": "unfolding enthalpy (calorimetric)", "setting": "pH 7.5, imidazole 10 mM", "result": 39, "unit": "kcal/mol"}, {"measurement": "Tm", "setting": "pH 8, MOPS 10 mM", "result": 57.1, "unit": "°C"}, {"measurement": "unfolding enthalpy (calorimetric)", "setting": "pH 8, MOPS 10 mM", "result": 42.5, "unit": "kcal/mol"}, {"measurement": "Tm", "setting": "pH 8, imidazole 10 mM", "result": 56.8, "unit": "°C"}, {"measurement": "unfolding enthalpy (calorimetric)", "setting": "pH 8, imidazole 10 mM", "result": 38.2, "unit": "kcal/mol"}, {"measurement": "Tm", "setting": "pH 8.5, HEPES 10 mM", "result": 56.5, "unit": "°C"}, {"measurement": "unfolding enthalpy (calorimetric)", "setting": "pH 8.5, HEPES 10 mM", "result": 42.1, "unit": "kcal/mol"}, {"measurement": "Tm", "setting": "pH 8.5, Sodium borate 10 mM", "result": 57.7, "unit": "°C"}, {"measurement": "unfolding enthalpy (calorimetric)", "setting": "pH 8.5, Sodium borate 10 mM", "result": 44.5, "unit": "kcal/mol"}, {"measurement": "Tm", "setting": "pH 8.7, Sodium borate 10 mM", "result": 57.6, "unit": "°C"}, {"measurement": "unfolding enthalpy (calorimetric)", "setting": "pH 8.7, Sodium borate 10 mM", "result": 43.7, "unit": "kcal/mol"}]}]}
